According to patent US20150361464A1, “METHODS, REAGENTS AND CELLS FOR BIOSYNTHESIZING COMPOUNDS” (INVISTA North America S.á r.l., priority 2014, published 2015):

Legend:
[1] = ω-transaminase enzyme activity assay, forward direction (glutarate semialdehyde to 5-aminopentanoate), cell free extract; assay type: biochemical; settings: conclusion from reverse and forward direction assays
Description: (§1) A nucleotide sequence encoding an N-terminal His-tag was added to the genes from Chromobacterium violaceum and Rhodobacter sphaeroides encoding the ω-transaminases of SEQ ID NOs: 8 and 10 respectively (see FIG. 10) such that N-terminal HIS tagged ω-transaminases could be produced. Each of the resulting modified genes was cloned into a pET21a expression vector under control of the T7 promoter and each expression vector was transformed into a BL21[DE3] E. coli host. The resulting recombinant E. coli strains were cultivated at 37° C. in a 250 mL shake flask culture containing 50 mL LB media and antibiotic selection pressure, with shaking at 230 rpm. Each culture was induced overnight at 16° C. using 1 mM IPTG.
(§2) The pellet from each induced shake flask culture was harvested via centrifugation. Each pellet was resuspended and lysed via sonication. The cell debris was separated from the supernatant via centrifugation and the cell free extract was used immediately in enzyme activity assays.
Enzyme activity in the forward direction (i.e., glutarate semialdehyde to 5-aminopentanoate) was confirmed for the transaminase of SEQ ID NO: 10. Enzyme activity assays were performed in a buffer composed of a final concentration of 50 mM HEPES buffer (pH=7.5), 10 mM glutarate semialdehyde, 10 mM L-alanine and 100 μM pyridoxyl 5′ phosphate. Each enzyme activity assay reaction was initiated by adding a cell free extract of the ω-transaminase gene product or the empty vector control to the assay buffer containing the glutarate semialdehyde and incubated at 25° C. for 4 hours, with shaking at 250 rpm. The formation of pyruvate was quantified via RP-HPLC.

[2] = ω-transaminase enzyme activity assay, reverse direction (5-aminopentanoate to glutarate semialdehyde), cell free extract; assay type: biochemical; settings: 10 mM 5-aminopentanoate, 10 mM pyruvate, pH 7.5, 25° C., 4 hours; against the empty vector control; FIG. 15
Description: as §1, §2
Enzyme activity assays in the reverse direction (i.e., 5-aminopentanoate to glutarate semialdehyde) were performed in a buffer composed of a final concentration of 50 mM HEPES buffer (pH=7.5), 10 mM 5-aminopentanoate, 10 mM pyruvate and 100 μM pyridoxyl 5′ phosphate. […] The formation of L-alanine from pyruvate was quantified via RP-HPLC.

B1: SEQ ID NO: 8: Chromobacterium violaceum ω-transaminase, N-terminal HIS tagged, cell free extract (protein, listed as Chromobacterium violaceum)
chain: MQKQRTTSQWRELDAAHHLHPFTDTASLNQAGARVMTRGEGVYLWDSEGNKIIDGMAGLWCVNVGYGRKDFAEAARRQMEELPFYNTFFKTTHPAVVELSSLLAEVTPAGFDRVFYTNSGSESVDTMIRMVRRYWDVQGKPEKKTLIGRWNGYHGSTIGGASLGGMKYMHEQGDLPIPGMAHIEQPWWYKHGKDMTPDEFGVVAARWLEEKILEIGADKVAAFVGEPIQGAGGVIVPPATYWPEIERICRKYDVLLVADEVICGFGRTGEWFGHQHFGFQPDLFTAAKGLSSGYLPIGAVFVGKRVAEGLIAGGDFNHGFTYSGHPVCAAVAHANVAALRDEGIVQRVKDDIGPYMQKRWRETFSRFEHVDDVRGVGMVQAFTLVKNKAKRELFPDFGEIGTLCRDIFFRNNLIMRACGDHIVSAPPLVMTRAEVDEMLAVAERCLEEFEQTLKARGLA
modifications: N-terminal His tag
notes: Chromobacterium violaceum ω-transaminase, N-terminal HIS tagged, cell free extract
For B1, the “acceptance of glutarate semialdehyde as substrate and synthesis of 5-aminopentanoate, concluded from reversibility of the ω-transaminase activity” value [1] was “accepted glutarate semialdehyde as substrate and synthesized 5-aminopentanoate” and the “acceptance of 5-aminopentanoate as substrate (formation of L-alanine from pyruvate, RP-HPLC)” value [2] was “accepted 5-aminopentanoate as substrate”.
